Test results from publication PMC4370339 (Journal of molecular biology, 2014).
Where a chain is given by its changes, count along the chain named. In names and notes the source's numbering stands.

T1: SecBA129C (A, otherwise wild-type) (Escherichia coli, UniProt P0AG86 1-155, A129C | C102L)
T1 sequence (looked up): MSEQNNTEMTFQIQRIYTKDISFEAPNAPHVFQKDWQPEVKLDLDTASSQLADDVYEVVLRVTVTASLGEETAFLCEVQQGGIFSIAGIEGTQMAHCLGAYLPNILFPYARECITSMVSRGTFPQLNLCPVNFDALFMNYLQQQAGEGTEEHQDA

T2: SecBQ12C E77K (B) (Escherichia coli, UniProt P0AG86 1-155, Q12C | E77K | C102L)
T2 sequence (looked up): T1 sequence (looked up) with Q12C, E77K, C129A

T3: SecBE77K parent carrying A129C (b) (Escherichia coli, UniProt P0AG86 1-155, E77K | A129C | C102L)
T3 sequence (looked up): T1 sequence (looked up) with E77K

B1: SecB wild-type (natural protein, Escherichia coli, UniProt P0AG86 1-155, looked up)
chain: T1 sequence (looked up) with L102C, C129A
B2: SecB wild-type parent carrying Q12C (A) (natural protein, Escherichia coli, UniProt P0AG86 1-155, looked up)
chain: T1 sequence (looked up) with Q12C, C129A
B3: SecB142 parent carrying A129C (c) (domain or fragment, Escherichia coli, UniProt P0AG86 1-142, looked up)
chain: MSEQNNTEMTFQIQRIYTKDISFEAPNAPHVFQKDWQPEVKLDLDTASSQLADDVYEVVLRVTVTASLGEETAFLCEVQQGGIFSIAGIEGTQMAHCLGAYLPNILFPYARECITSMVSRGTFPQLNLCPVNFDALFMNYLQ
B4: SecB142,E77K parent carrying A129C (d) (domain or fragment, Escherichia coli, UniProt P0AG86 1-142, looked up)
chain: B3 chain with E77K
B5: SecBL75Q (natural protein, Escherichia coli)
chain: MSEQNNTEMTFQIQRIYTKDISFEAPNAPHVFQKDWQPEVKLDLDTASSQLADDVYEVVLRVTVTASLGEETAFQCEVQQGGIFSIAGIEGTQMAHCLGAYCPNILFPYARECITSMVSRGTFPQLNLAPVNFDALFMNYLQQQAGEGTEEHQ
B6: SecB142 parent carrying Q12C (C) (domain or fragment, Escherichia coli, UniProt P0AG86 1-142, looked up)
chain: B3 chain with Q12C, C129A
B7: SecB142,E77K parent carrying Q12C (D) (domain or fragment, Escherichia coli, UniProt P0AG86 1-142, looked up)
chain: B3 chain with Q12C, E77K, C129A

Legend:
SecB (Escherichia coli) = SecB (Escherichia coli) (UniProt P0AG86); experiment: ITC; details: cited from earlier work
SecA [1] = molecular target: T4, SecA (Escherichia coli, UniProt P10408 1-901); experiment: SEC
T4 sequence (P10408 whole entry): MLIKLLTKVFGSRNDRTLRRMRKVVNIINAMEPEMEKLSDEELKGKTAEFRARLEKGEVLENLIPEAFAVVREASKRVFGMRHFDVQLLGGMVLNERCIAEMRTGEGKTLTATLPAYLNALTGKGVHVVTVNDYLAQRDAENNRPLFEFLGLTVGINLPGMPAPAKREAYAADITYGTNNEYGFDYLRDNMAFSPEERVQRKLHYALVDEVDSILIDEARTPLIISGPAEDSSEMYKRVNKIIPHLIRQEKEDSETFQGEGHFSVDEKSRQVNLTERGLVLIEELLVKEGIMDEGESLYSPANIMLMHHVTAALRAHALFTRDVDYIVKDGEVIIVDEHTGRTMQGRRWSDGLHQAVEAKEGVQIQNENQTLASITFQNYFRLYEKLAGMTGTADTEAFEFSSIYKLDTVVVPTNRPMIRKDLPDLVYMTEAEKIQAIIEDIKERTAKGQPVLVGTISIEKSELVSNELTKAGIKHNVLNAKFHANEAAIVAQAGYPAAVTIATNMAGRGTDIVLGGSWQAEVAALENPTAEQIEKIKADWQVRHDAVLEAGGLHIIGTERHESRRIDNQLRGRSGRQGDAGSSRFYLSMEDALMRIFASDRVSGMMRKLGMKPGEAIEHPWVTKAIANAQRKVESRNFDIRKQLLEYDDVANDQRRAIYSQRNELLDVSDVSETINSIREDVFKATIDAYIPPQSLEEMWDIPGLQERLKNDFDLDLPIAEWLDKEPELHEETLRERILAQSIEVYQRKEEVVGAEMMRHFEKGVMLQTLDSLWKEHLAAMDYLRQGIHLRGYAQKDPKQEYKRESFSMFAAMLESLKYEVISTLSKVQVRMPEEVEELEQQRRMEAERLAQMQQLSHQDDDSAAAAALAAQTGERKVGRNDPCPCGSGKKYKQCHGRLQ

AUC = molecular target: the molecule itself; experiment: AUC
[2] = molecular target: T1, SecBA129C (A, otherwise wild-type); experiment: cross-linking
SecBQ12C E77K (B) = molecular target: T2, SecBQ12C E77K (B); experiment: cross-linking
[3] = molecular target: B2; experiment: cross-linking
SecA [4] = molecular target: T4, SecA; experiment: SEC-MALS
[5] = molecular target: T3, SecBE77K parent carrying A129C (b); experiment: cross-linking
[6] = molecular target: B4; experiment: cross-linking
[7] = molecular target: B3; experiment: cross-linking

Molecule: SecA 2-11 (from UniProt P10408)
- Kd (SecB (Escherichia coli)): 30 µM

Molecule: B1
- relative affinity (ratio of Kds) against radiolabeled SecB (SecA [1]): 0.82 unitless
- binding result (AUC): binds

Molecule: B2
- binding result [2]: binds

Molecule: B3
- binding result (SecBQ12C E77K (B)): binds

Molecule: B4
- binding result [3]: binds

Molecule: B5
- stoichiometry N (SecA [4]): 1 SecA protomers per SecB tetramer

Molecule: B6
- binding result [5]: binds
- binding result [2]: binds
- binding result [6]: binds

Molecule: B7
- binding result [7]: binds
- binding result [5]: binds
- binding result [2]: binds
